From a protein production outcome set (Wang et al. 2014)

experiment: label from the status in PepcDB records

Row | Sequence | protein production
1 | MKVQITNSRTEEILKVQANNENDEVSKATPGEVEESLRLIGDLKFFLATAPVNWQENQIIRRYYLNSGQGFVSCVFWNNLYYITGTDIVKCCLYRMQKFGREVVQKKKFEEGIFSDLRNLKCGIDATLEQPKSEFLSFLFRNMCLKTQKKQKVFFWFSVAHDKLFADALERDLKRESLNQPSTTKPVNEPALSFSYDSSSDKPLYDQLLQHLDSRRPSSTTKSDNSPPKLESENFKDNELVTVTNQPLLGVGLMDDDAPESPSQINDFIPQKLIIEPNTLELNGLTEETPHDLPKNTAKGRDEEDFPLDYFPVSVEYPTEENAFDPFPPQAFTPAAPSMPISYDNVNERDSMPVNSLLNRYPYQLSVAPTFPVPPSSSRQHFMTNRDFYSSNNNKEKLVSPSDPTSYMKYDEPVMDFDESRPNENCTNAKSHNSGQQTKQHQLYSNNFQQSYPNGMVPGYYPKMPYNPMGGDPLLDQAFYGADDFFFPPEGCDNNMLYPQTATSWNVLPPQAMQPAPTYVGRPYTPNYRSTPGSAMFPYMQSSNSMQWNTAVSPYSSRAPSTTAKNYPPSTFYSQNINQYPRRRTVGMKSSQGNVPTGNKQSVGKSAKISKPLHIKTSAYQKQYKINLETKARPSAGDEDSAHPDKNKEISMPTPDSNTLVVQSEEGGAHSLEVDTNRRSDKNLPDAT | failed
2 | MKVSCCFGTCLKHLDPACVKTSRRIAILHSALPRQRPPPALECPAFSFGDSDMTDQRKGSDAEPTTHFGFKNVPESQKAEKVAEVFHSVAAKYDLMNDVLSGGMHRLWKRFTIELSGVRAGNRVLDIAGGTGDLTKRFSHLVGPTGQVVLADINESMLKVGRDRLLDLGVAGNVEFVQADAEKLPFPDNHFDCVTIAFGLRNVTHKEDALRSMLRVLKPGGRLLVLEFSKPTNALMSKVYDAYSFAFMPLAGKLITNDSESYRYLAESIRMHPNQETLKSMMVEAGFDRVTYHNMTAGIVALHRGIKP | failed
3 | MKVSSKLLSITNHHEYLDLVTDGAKFRIYLLDENIIRIRGTFDDDFAPEESYALVKTAWADATDDLIGDERQRVTPIAVELTETADGYTVSNGRYTLEIHAEPFYFEIKDQNGVTVHKDLVKRSFVQDDLGRRFHYSAMGDHDKFYGFGEKSGKLNKFKRRMRMHNTDSLGWNAAKSDPLYKMIPFYIDFNTTTNIASGLYYNNTHDSVFDMDCEHSNYWLRYSYFQCDGGDLDVFFIGGPTIKQVVEHYTDLTGKSAMMPLPSLGYMGSTMFYTELDQDADQAILDFIDTCKKNGIPCDGFFLSSGYTSGKDGKRYVFNWNKKRFPDPQKFVAELKKRGALLAPNIKPGMLVTHPLADEFMEKDAYIKTPDGQGSQVDQYWGGDAHFVDFTNPHGRDAWEQKMTEALLSIGITSIWNDNNEYEINDTQAVVDAEGQKSTIGALKPIMPTMMAKAAKDAINRYDATVRPYLVNRAGFAGIQRYAQTWAGDNYTSWTNVKYNIPTILGMGLSGVANQGCDIGGFDGPLPEPELFVRWVQNGIFQPRFSIHSCNNDNTVTEPWTYPAYTKYIRAAIQLRYSLVPYLYSLLYEASTKGSPIMRPLVYEFQDDPQVAEESFEFMLGASLLVANVVDKGQTAKSVYLPAGVDWLDLKTSQYYTGGQTITIPVDLGSIPMFLKAGSIVPQSKGLMNLHNDVIDKLDVLIEPSRDAEFVVYEDDGVTNNYRQGETLETTIKTTATADGVVIDFSRVGQYQTQVKTMALAVCCPKIAPLSVDLADQSLPRYLNAAKFADAAEGWYFDGESRQVQIKYANPEVAGYAVKVNFSVKDLISI | failed
4 | MKVSVIIPTYNERENLEELFSRIDNALQGLNYEIVVVDDDSPDRTWEKAQELSSKYPVKVIRRTKEKGLSSAVIRGFKEASGDVFVVMDADLQHPPEVIPKLIEAIKNGSDIAIGSRYVKGGKVENWPFYRKLISKGAIMVGRIALPKIRDIKDPVSGFFALRKEVVEGVELNPIGFKILMEILIKGKYSKVVEVPFTFGIRARGESKLKGKTIFEYLRHIYRLMKWEGEIDRIVKFSIVGLSGILVNEGFLWLFVNLGIPKEIAVIPAVELSILNNFFWNDIWTFKDIRRGSIFSRLLKFHIAALSGAVVNFIVYWILLFLGIHYLIANLVGIVLSFGVRYVINRHVTWAT | failed
5 | MKVTFMNLEERKKLETKSIDELDLIGKKVCVDTCVVIDGRITELIERGKLKDATIIIPEAVVSELEYQANMGREIGYKGIEELRKLIEKASEHNIKVEYYGERPTREEIFLAKSGEIDAMIRKVAKETNSILLTSDWIQYNLAKAQGIEAYFLEAAEEEVELVLD | not failed
6 | MKVTNLFKDKVDAISAHQSEFMNWMSPTLRDYWSDFLGKAQNSFLFSNVRDHNQPAVNEEVAPQPAPIVLQPEAQKLYDELSGKIGEVIHTGDWVHVSQERINQFGAVTEDMQWIHTDPERASVESPFKTTIAHGFLTLALLPKLTDSVDADKPLFPTAKLVVNLGLNQVRFPYPVKAGNNVRAVSTLTKVTPIKKGLEIEREIKVEIEGVRRPGAVVVSVIQLHFLEHHHHHH | not failed
7 | MKVTSAEKHALLLPDNRTLTWYESGPSDGQPVLFCTGAGMSGLLSMDADLLTKLNIRLITPTRPGLGESTFDPKKTLKSFSSDVLFLLAYLNIKNISVIGSSQGAVFAMAICYYGKVDKLAIVAGQDQLDYPEIKKLLSSDVVNMQQQALFDPDGLKTWIIENITADWLMDFILNYSADVDLALYQENKFFPVYQACMKEAFKYGNKGYAQDLLITMQPWGFTPEMISTPTTLWYGLKDTSTVHSPDFGKLLSQRFPHAQRYVYDNEGGSLLWTKTSQILTNLIS | failed
8 | MKVVVITGNLSRPSKTRAVADFMVDRVRASGNEASCWDLVDLHPHLGATVLPSSAAEIVKAALNDILASDVLVVGSPVYKASYTGLLKHLFDLVDMKALKGRYVIPFATGKASSHKPLVEASMEALFDFFEAQIHSRFIFALDEDFQNDALSENLRALVDRELDAARRAVSP | failed
9 | MKVVVQIKDFDKVPQALRSVINLYNDIKDAEIEVVLHQSAIKALLKDSDTRSIIEDLIKKNILIVGCENSIRSQNLSHDQLIPGIKIVTSGVGEIVRKQSEGWIYLAL | not failed
10 | MKVYLHFSPQFFANTYLIGNEITKEAVIIDPAKITEKMIHQIEKNEFNLKAVLLTHDLEHPYETGLNTILKIYSPKVYAGSCFSENVTINTLRGDGCIDVAGYSVRYFAIPAHSSYSYMFQIENMVFTGTSLSAGMIGQTSNMYAERTLRNILKTKLMCFEDNLIIMPFYGPPTSIGVERKYNASFFQDFEKKPFLEHHHHHH | not failed
11 | MKWIDSHIHVDQYKDEEKSRLLKEVENSKEIKGLIAVSMNYQSCKETLSLAKKYPFIYPAIGFHPEQQIHKEECEQIYQLIEQNAEEIVAIGEVGLPYYLRKEDERIAADPYIAVLKKFIELASKYNLPIVLHAVYEDADIVCDLLEKYKVSRAHFHWFKGSDETMKRMMRNGYYISITPDVLHKEKIRKIVSYYPLEYMMVETDGPWEFQEDVITHPRMIREVLKEISSIKNISIDKVAETIYENTSRFYLK | failed
12 | MKWLRSEMKTFAIHLPQFHTFPENDRWWGKGFTEWTNVKKAKPLYEGHSQPLIPINSHYYDLSNPEEMTRQHRLAAQYGIDGFVYYHYWFNGKKLMEKPVEDLLTNKEAKQQYCLCWANEPWTRAWDGKNKEILMPQTFGGQEDWLNHIRYLISFFKDERYLRIQGRPVFFVYSPKNIPNFDNMIEFWDSYLERCGEEKIYLIEYISSFNPKAFSDYSKAVFEFEPLYSAHYEISFLKQADRFIDKKMKRLDCLDYDYLWNRILNKQRKYGTRQIVRSAFTNFDNSPRKGTRAFITQGSSYTKFADYLNQLIHSNRQDYMDFTVINAWNEWGEGAILEPTESDQYGWLQAVKDAVQ | failed
13 | MKWRSRQLSFSSAKWYGDVIWIFDPGIIGAQIDNEGDLKKCFIQTLFHSTGSRQSIRIWWREIMLSLILRIYLDKFLPWISLSIKEVGESSVINFSLWGCLHGTRFRRWYSPFQKLSALAITKKDVISSSWRCFNGMRCN | failed
14 | MKWRYSPKTSNYCFIVGGFFLFLPILMYGWGHFRRPPRSENQQELFRGIVYQRLIESKPRPLIIHIVTIDLNTPGIKPFITPDIENLSKNVGVGKQAIIDNETKARTTSEFVAEFQVKLAINGSYFYPFKEVTPWHYYPHSGDTTKVLGQTISNGKIYANKKSSWYVLCFDNNNQAQIPGGEECPKNTIQGLAGDDVLVFQGKPKINIYANSSADKPYSRVVAAIDKTGKKLWLVLVDGKQPLYSEGFTKRELTQFIAKLGVYNAINLDGGGSTTLVVANPDKEGKPKILNAPTHTKILMRDRPVANHLGFYAD | failed
15 | MKYADISHFSHPQHNLKFDYTEKPFKCDGCNEVGIGSRYRCSGDNHGSCDFDLHAHCALPSASITHPFYKKCTFQFVARPPGNERRYCNACEKDVSGFLYHCKACGFDLHPCCAMLPMVLDDGETNLFLYRKVSSSCHRCGKKGRSWSYRSLFLILFLFFHYYDTKD | failed
16 | MKYIRKSISIFAVLALVFILSFGNVSAGTIYESKTKETVTSGVTLETITRFTDDGWQKINVLRVDLENPNVKVDTLIDSESIKKLTNVKNLAQSAGAVAAVNAGFFNWLKGESGKGYPDGPVIKSGEFLSVDSEYNRYNNSMATIAIDKDNNVYFDFWKTDITLHAPDGSTTRVFQYNKPSPFQYTDITIWTSAWDKYSLGVSQQYPDLVEVVVDNGTVVEIRQGLPAVEIPQNGYVIISRGANAQFLLQHFKVGDPVEISFSTVLDWQKIEMAVTGSAILVKDGQIPEKFSYEISGVHPRTAAGTSKSGKELILVTVDGRQAASKGMTQRELANLMLSLGAYNAINLDGGGSTSMVSRIPGTNDLKVVNTPSDGALRSISTAIGVFSVAPPSELAGMIIETQPNVFVNSSTTLTVKGYDKYFNPVSVDPNSINWSVSGIKGSFAGNVFRAESSGIGTITATVNGIKASTTIRALEAPNKLILSTTKLNLLKGSSYSFTVKGVDNNGYSSYINFADINWTVNGDIATIEKNKITAVKPGTGYIEAAFGDARAYCAVSVASESTYLVDDFEKKNGSFETVPANLPGSYELSSEVKKSGNYSGKLSYDFSYLEGTRAAYLVFPNGGIDLDGNTVEITMMVNNPQQNPNWLRAEVIDSGGQKHLVDFTRDLTWTGWGRVFASLRDIKSPAKLTKIYVVQVNPVPSSGCIYIDDLSLVKATFPEINESTIPKDVVLSDRDNKEAALNKDSIKISVFSGKSNPENMLQKLLNTKFYNKVKADGYMKSIQDISNINTNTHVDIGGTRLITLNTTDKSIRTSASGQWQWFFDKLNSHTGDNIFIFMKNSPDTFVDPLEAKLFKDILIEHKEKTGKNIWVFYGNSSETYYADNGIKYFGVAGLNIGGLTPDNAKNVKYIEITVNGKEVSYQYKSPLK | failed
17 | MKYLAAYLLLVQGGNAAPSAADIKAVVESVGAEVDEARINELLSSLEGKGSLEEIIAEGQKKFATVPTGGASSAAAGAAGAAAGGDAAEEEKEEEAKEESDDDMGFGLFD | failed
18 | MKYLAFSIVFILTAFTRVTAQNLDGIDKSLSLSKMKTRARIAEETGDIYTALFYYEEVVRNDSSDLKALYQVAEMQRFTRNYKAAEVTYGKIHEIAAADYPLAQYYQGLMQKMTGRYEDAKQTFSEFRKNSAALADKTFKATLARDISGCDSGITYRDFPQNTQIKNAGKSVNFPHTEFSPVILDSTTLAFGSLRIDSVIYYDTRGEHYEKQPVRQLYEAKKVKGQWVEKGLLEAINDPAMDMGNFVYSPTTDRYYFTKCTKNHHGKVSCAIYYSERVSGKWSHPSKLPDPINIEGYTATQPTIVIDTTSSSAATTTPKNMPPRKTGGNKPVPKPVVNTIEYLYFVSDRPKGKGGLDIWYTSYNASKKTWNEPTNLAVANTPETECTPFYHVPTQTLYFSSNGLVNAGGLDIYKLEKDGRRFGRPENLSFPVNSPQDELSFVLADNAKTGFFVSNRPGGTPFFHETCCDDIFSFEVIPPPPFVCTLDLSVLDVAAKNNCDGELLNINQVNLKTKAAEKDTVRLSSCKYTVSLAQHVKYTFFINKPGYVTDTLSFETRDMCATPTITKSLTLVPVSVSMKNSEPVIETPVEGKAFVLKDIQYETNQTDLNDEAKAAIDNILIPFLKEHPTDKIIISSHTDDVGSHKYNENLSDQRALKVMQYLIQKGISAKQIQAKGYGETKPIASNINPDGSENEIGRSINRRTEFLISK | failed
